These results are taken from US11466255B2, “Methods and compositions for converting non-endocrine pancreatic tissue into insulin-producing cells” (UNIVERSITY OF MIAMI, priority 2015, dated 2022).

One series deals with pure islet preparations. Kind of series: Pure islet preparations treated with BMP-7 (colony formation). The following applies: n=3. Type of series: cell-based, human.
In series [1] the test system is SMAD1/5/8 phosphorylation. As to the kind of experiment: SMAD1/5/8 phosphorylation by immunofluorescence in hNEPT. Format: cell-based, human. Particulars: 2 h after the addition of BMP-7 to hNEPT. An excerpt: In order to study the mechanism behind the effects of BMP-7 on hNEPT preparations, the potential receptors engaged by BMP-7 were studied. BMP-7 binds with high affinity to heteromeric complexes formed by BMPR2 (Bone Morphogenetic Receptor Type II) and the activin-like kinase (ALK) ALK3, ALK6 or ALK2 type I serine/threonine kinase receptors^25. […] These findings are consistent with numerous reports that identify ALK3 as the receptor that mediates BMP-7 function in several biological models of regeneration, including adult liver regrowth^23, differentiation of epidermal Langerhans cells^24 and kidney regeneration and fibrosis reversa1^22. The activation of the canonical BMP signaling pathway entails the phosphorylation of SMAD1/5/8 upon ALK3 engagement.
IF analysis and confocal microscopy: The present study was conducted on human pancreatic samples from cadaveric organ donors. In addition to our own cGMP facility, the Network for Pancreatic Organ Donors with Diabetes (nPOD, www.jdrfnpod.org)55 also provided tissue sections. For IF staining, 5 μm-thick frozen sections or cultured cells were fixed with 4% paraformaldehyde (PFA) for 20 min at room temperature, rinsed with HBSS, washed (3 x 5 min each) with lx Supersensitive Wash Buffer (Biogenex HK583-5K) and then incubated in permeabilization buffer PBSTr [0.2% Triton X-100 (Sigma-Aldrich) in PBS] for 30 min at room temperature. […]

The test system of another series is hNEPT. As to the kind of experiment: Immunofluorescence / ImageJ quantification of C-peptide+ cells. Type of series: cell-based, human. Particulars: 12 fields/sample, n=3; controls 8.15±0.92%, P<0.0001. The method, then: Immunofluorescence characterization of the insulin-expressing clusters was conducted. To rule out potential false-positives derived from the presence of residual insulin in the culture medium, we stained for C-peptide, which is present in pro-insulin and therefore indicates de novo synthesis of insulin. […] In order to quantify the number of C-peptide+ cells after BMP-7 treatment ImageJ and the FIJI Analyze particles feature was used. Using this software on an average of 12 fields/sample (n=3), the percentage of C-peptide+cells in hNEPT populations after BMP-7 treatment was determined to be 30.43±4.07% vs. 8.15±0.92% in controls (P<0.0001).
IF analysis and confocal microscopy: The present study was conducted on human pancreatic samples from cadaveric organ donors. […]
Imaging analysis: For general quantification purposes (e.g., percentage of C-peptide+ cells) we used ImageJ and the FIJI Analyze particles feature. […] Images were then binarized for quantification. The Watershed function was used on the DAPI channel to separate touching nuclei, which were subsequently counted by the Analyze particle command. Subsequently, we detected nuclei that were overlapping with C-peptide+ areas using the AND operator under the Image calculator feature of FIJI. Finally, we quantified the number of nuclei in the overlap area and calculated the ratio of the overlapping nuclei against the total nuclei.

Series [2] concerns stz-treated diabetic mice. As to the kind of experiment: Systemic BMP-7 in stz-treated diabetic CD1 mice. Type of series: in vivo, mouse. The following applies: BMP-7 500 μg/kg IP daily for 30 days, stz 200 mg/kg. The method, then: Systemic BMP-7 (500 μg/kg) is administered to CD1 mice by means of intraperitoneal (IP) injection daily for 30 days. This dose is within the range reported for rodents in other BMP administration settings^18,67-69, and is refined in subsequent preclinical experiments. Acute diabetes is induced by a single injection of stz (200 mg/kg) prior to BMP-7 treatment. Controls receive saline by the same route. […] Similar doses^18 are effective at reversing kidney fibrosis. Ten animals/group are used. Half of the animals in each group receive BrdU in the water. Mice are euthanized 30 days after initiation of treatment, or earlier if diabetes reversal is observed. Glycemia is monitored daily at the same time, right before injection. IPGTTs and determination of PI/I ratios is done at 14 and 30 days. Upon euthanasia, the pancreas and other organs are harvested and analyzed by a pathologist to establish if there are tumorigenic or otherwise toxic effects associated with the treatment. The pancreas is also studied by IF in search of potential β-cell/endocrine cell neogenesis and/or signs of β-cell/endocrine cell proliferation (BrdU-treated animals) when compared to saline-treated controls. […] Relative quantification of β-cell/endocrine cell neogenesis are done using normalized total insulin quantification and the imaging techniques described in Example 4 and^17. […]

The conditions of series [3]: reconstituted solution; cited from earlier work.

B1: BMP-7: 35 kDa homodimeric protein of the TGF-β superfamily; FDA-approved agent; human mature chain SEQ ID NO:1/2 (protein, listed as Homo sapiens)
chain: IRSTGSKQRSQNRSKTPKNQEALRMANVAENSSSDQRQACKKHELYVSFRDLGWQDWIIAPEGYAAYYCEGECAFPLNSYMNATNHAIVQTLVHFINPETVPKPCCAPTQLNAISVLYFDDSSNVILKKYRNMVVRACGCH
modifications: homodimer; human mature chain of BMP-7 (NCBI Reference Sequence NM_001719.2) comprising peptide from 293-431
B1: the colony formation result in the series with pure islet preparations is recorded as “failed to give rise to colonies”. For the same molecule, the “SMAD1/5/8 phosphorylation in ALK3-expressing cells” value in series [1] was “presented SMAD1/5/8 phosphorylation”. Further, the “percentage of C-peptide+ cells in hNEPT populations after treatment” value in the series on hNEPT worked out at 30.43±4.07%. The glycemia vs. controls result in series [2] is listed as “glycemic improvements”. In addition, in series [3], the “time reconstituted BMP-7 is active” value is 2 to 7 days.
